Source: US20060193849A1

Target: MUC-1 gene product, the membrane mucin glycoprotein (polymorphic epithelial mucin or PEM) (human) (UniProt P15941)
Experiment: flow cytometry equilibrium binding on MCF7 cells
Settings: scFv

MUC-1 gene product, the membrane mucin glycoprotein (polymorphic epithelial mucin or PEM) (human), sequence (P15941 24-1255): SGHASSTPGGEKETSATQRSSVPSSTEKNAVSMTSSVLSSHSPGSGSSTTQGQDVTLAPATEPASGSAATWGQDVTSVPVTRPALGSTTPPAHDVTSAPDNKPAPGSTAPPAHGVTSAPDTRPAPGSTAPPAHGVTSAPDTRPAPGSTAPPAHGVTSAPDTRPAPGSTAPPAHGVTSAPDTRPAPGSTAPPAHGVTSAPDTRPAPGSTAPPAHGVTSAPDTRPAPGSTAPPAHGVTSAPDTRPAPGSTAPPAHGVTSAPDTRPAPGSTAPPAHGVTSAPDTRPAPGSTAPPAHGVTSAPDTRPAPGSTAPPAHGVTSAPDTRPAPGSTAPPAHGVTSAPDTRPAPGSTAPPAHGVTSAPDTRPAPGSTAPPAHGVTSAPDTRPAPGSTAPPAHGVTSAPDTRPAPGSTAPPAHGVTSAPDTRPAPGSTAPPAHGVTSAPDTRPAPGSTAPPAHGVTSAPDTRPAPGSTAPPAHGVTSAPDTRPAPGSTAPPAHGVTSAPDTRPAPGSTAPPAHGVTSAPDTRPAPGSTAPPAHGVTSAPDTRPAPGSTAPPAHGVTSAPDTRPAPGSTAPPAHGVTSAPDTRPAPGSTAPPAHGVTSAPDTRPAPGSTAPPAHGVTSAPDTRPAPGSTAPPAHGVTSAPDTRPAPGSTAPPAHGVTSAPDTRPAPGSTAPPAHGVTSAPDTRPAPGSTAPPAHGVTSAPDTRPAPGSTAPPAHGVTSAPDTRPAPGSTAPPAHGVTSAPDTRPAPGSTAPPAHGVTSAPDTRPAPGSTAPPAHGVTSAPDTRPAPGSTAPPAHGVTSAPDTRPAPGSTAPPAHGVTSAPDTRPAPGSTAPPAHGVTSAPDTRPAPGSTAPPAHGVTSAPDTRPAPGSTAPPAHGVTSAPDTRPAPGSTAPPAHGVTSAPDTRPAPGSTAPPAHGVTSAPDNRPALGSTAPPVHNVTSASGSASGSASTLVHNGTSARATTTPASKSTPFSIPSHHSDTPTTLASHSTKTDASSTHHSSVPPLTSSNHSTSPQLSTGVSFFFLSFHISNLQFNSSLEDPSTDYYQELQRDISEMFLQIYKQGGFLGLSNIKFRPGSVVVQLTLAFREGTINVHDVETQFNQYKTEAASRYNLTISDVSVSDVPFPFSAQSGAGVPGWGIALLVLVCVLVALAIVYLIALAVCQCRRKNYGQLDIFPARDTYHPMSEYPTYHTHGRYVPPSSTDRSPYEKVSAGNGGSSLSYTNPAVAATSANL

Kd: 199 nM
Substance: huHMFG1 wild-type scFv 22W
